This is an account of results in patent publication US20220153818A1 (UNIVERSITY COURT OF THE UNIVERSITY OF ABERDEEN, published 2022).

The target in assay [1] is T1, Recombinant Hyr1 N-terminus fragment (amino acids 63-350) with N-terminal 6xHis tag (Candida albicans, UniProt Q5AL03 63-350).
T1 sequence: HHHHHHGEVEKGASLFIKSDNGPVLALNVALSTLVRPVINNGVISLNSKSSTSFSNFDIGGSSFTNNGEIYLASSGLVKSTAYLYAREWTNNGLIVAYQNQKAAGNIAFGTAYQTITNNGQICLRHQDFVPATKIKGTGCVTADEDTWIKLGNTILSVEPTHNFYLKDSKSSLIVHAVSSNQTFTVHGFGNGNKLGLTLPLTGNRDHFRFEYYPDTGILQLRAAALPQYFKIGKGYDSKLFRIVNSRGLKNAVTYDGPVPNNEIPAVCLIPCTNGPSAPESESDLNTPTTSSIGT
The assay can be described thus: ELISA, plate coated with recombinant Hyr1 N-terminus, titrated IgG1. On the technique in general: ELISA stands for enzyme-linked immunosorbent assay.

For the next assay, the target named is T2, human serum albumin (human, UniProt P02768 25-609).
T2 construct: also called HSA
T2 sequence (P02768 25-609 limits assumed): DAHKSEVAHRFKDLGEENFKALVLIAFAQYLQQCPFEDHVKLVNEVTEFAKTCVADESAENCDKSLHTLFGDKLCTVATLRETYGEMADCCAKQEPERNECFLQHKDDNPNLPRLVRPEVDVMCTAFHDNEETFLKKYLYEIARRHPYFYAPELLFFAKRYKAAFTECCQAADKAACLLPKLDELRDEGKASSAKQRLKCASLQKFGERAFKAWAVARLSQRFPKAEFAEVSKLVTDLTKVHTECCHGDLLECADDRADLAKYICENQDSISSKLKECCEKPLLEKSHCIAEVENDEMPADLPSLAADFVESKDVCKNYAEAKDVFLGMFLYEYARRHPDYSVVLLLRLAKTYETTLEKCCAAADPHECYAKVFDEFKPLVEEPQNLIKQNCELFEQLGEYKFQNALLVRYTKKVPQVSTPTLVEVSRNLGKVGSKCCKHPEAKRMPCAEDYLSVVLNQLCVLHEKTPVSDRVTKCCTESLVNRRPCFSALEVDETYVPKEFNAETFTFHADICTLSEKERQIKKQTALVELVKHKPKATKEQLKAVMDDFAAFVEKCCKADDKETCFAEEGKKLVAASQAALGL
The assay can be described thus: ELISA.

B1: AB121 (antibody, V domains shown)
VH: EVQLVESGGTLVQPGGSLRLSCAASGFTFSDYWMNWVRQAPGKGLEWVANIKQDGSEKYYVDSLRGRVTISRDNAQNSVFLQMHSLSVEDTAVYYCARDGYTFGPATTELDHWGRGTLVSVSS
VL: QLVLTQPPSVSVSPGQTASITCSGDELRNKYTSWYQQKSGQSPVLVIYQDNNRPSGIPERFSGSQSGDTATLTISGTQAVDEADYYCQAWVSQTLVFGGGTKLTVL
notes: also called 06-AB-121; anti-Hyr1 mAb AB121
B1: in assay [1], the EC50 was determined as 0.0765 µg/mL. The binding result with human serum albumin was “no binding”.

B2: AB120 (antibody, V domains shown)
VH: EVQLVQSGGGLVQPGGSLGLSCAASGFIFTSYAMTWVRQAPGKGLEWVSVITGNVGTSYYADSVKGRFTISRDNSKKTVSLQMNSLRAEDTAIYYCVKTRYDFSSGYYFDDWGQGTLVSVSS
VL: DIVMTQSPSSVSASVGDKVTITCRASQGISRWLAWYQQKPGEAPELLIYAASSLQSGVPSRFSGSGSGTDFTLTISSLQPEDFATYYCQQANSFPITFGQGTRLQIK
notes: also called 06-AB-120; anti-Hyr1 mAb AB120
Turning to B2, the EC50 in assay [1] came out at 0.104 µg/mL. In addition, the binding result with human serum albumin is “no binding”.

B3: AB123 (antibody, V domains shown)
VH: EVQLLESGGGVVQPGRSLRLSCAASGFTFSNYGMHWVRQAPGKGLEWVAVVWFDGSYKYYTDSVKGRFTISRDNSKSTLYLQMNSLRAEDTAVYYCVSPIMTSAFDIWGPGTMVSVSS
VL: QLVLTQPPSASGSPGQSVTISCTGTSSDVGGSNFVSWYQHHPGKAPKLMIYEVSQRPSGVPDRFSGSKSGNTASLTVSGLQADDEADYYCSSYAGSVVLFGGGTKLTVL
notes: also called 06-AB-123; anti-Hyr1 mAb AB123
With B3, the concentration for a half-maximal effect (EC50) in assay [1] is 0.0533 µg/mL. Besides, the binding result with human serum albumin is given as “no binding”.

B4: AB122 (antibody, V domains shown)
VH: EVQLVQSGGGLAQPGRSLRLSCAASGFGFDDFAMHWVRQPPGKGLEWVSGLTWNGGSIDYAGSVRGRFTISRDNAKNSLFLQMNSLRAEDTALYYCAKGLSGGTMAPFDIWGQGTMVSVSS
VL: QAGLTQPPSVSVAPGQTATIPCGGNNIGSKHVHWYQQKPGQAPVAVVYDDSDRPSGVPERFSGSNSGNTATLTISSVEAGDEADYYCQVWDRSSDHFWLFGGGTRLTVL
notes: also called 06-AB-122; anti-Hyr1 mAb AB122
For B4, the EC50 in assay [1] was determined as 0.0496 µg/mL. Further, the binding result in the assay with human serum albumin is reported as “no binding”.

As a reminder, the EC50 is the concentration giving half of the maximal effect.
